The results in this text go back to patent US20250282833A1.

Experiment [1] deals with Anc80 AAV capsid viral protein VP1.
The target in experiment [2] is AdV5 Penton base (human adenovirus C serotype 5) (UniProt P12538).
Experiment [3] concerns the target AdV5 Fiber (human adenovirus C serotype 5) (UniProt P11818).
The target of experiment [4] is T1, AdV5 pIVa2 (human adenovirus C serotype 5) (UniProt P03271).
T1 sequence: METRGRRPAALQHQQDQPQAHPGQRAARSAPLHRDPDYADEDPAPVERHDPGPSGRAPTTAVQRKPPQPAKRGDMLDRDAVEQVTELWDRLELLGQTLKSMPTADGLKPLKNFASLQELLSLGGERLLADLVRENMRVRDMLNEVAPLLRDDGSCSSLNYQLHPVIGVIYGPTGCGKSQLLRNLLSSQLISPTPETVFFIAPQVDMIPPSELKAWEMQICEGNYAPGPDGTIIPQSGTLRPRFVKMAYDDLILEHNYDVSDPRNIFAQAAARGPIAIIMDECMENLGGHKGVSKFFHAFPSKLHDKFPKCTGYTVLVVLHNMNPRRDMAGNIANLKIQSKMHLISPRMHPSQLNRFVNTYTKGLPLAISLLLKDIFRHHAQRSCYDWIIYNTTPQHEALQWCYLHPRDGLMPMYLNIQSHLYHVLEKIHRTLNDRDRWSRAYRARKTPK

The target of experiment [5] is AdV5 pVIII (human adenovirus C serotype 5) (UniProt P24936).
The target in experiment [6] is AdV5 Hexon (human adenovirus C serotype 5) (UniProt P04133).
Experiment [7] deals with T2, AdV5 pV (human adenovirus C serotype 5) (UniProt P24938).
T2 sequence: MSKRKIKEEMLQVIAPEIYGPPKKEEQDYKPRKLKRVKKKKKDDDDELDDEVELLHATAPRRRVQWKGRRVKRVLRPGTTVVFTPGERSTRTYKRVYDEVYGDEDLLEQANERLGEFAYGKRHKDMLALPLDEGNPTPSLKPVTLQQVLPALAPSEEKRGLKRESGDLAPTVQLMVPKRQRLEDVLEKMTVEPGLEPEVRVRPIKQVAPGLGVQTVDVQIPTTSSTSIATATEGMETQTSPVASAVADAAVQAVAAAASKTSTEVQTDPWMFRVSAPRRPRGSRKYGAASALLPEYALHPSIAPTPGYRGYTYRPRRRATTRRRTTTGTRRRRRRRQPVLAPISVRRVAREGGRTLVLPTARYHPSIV

Experiment [8] concerns the target AdV5 AVP (human adenovirus C serotype 5) (UniProt P03253).
Experiment [9] concerns the target AdV5 pTP (human adenovirus C serotype 5) (UniProt P04499).
In experiment [10] the target is AdV5 pIX (human adenovirus C serotype 5) (UniProt P03281).
Experiment [11] concerns the target T3, AdV5 pVII (human adenovirus C serotype 5) (UniProt P68951).
T3 sequence (chain, acetylation at S2 (100.0%)): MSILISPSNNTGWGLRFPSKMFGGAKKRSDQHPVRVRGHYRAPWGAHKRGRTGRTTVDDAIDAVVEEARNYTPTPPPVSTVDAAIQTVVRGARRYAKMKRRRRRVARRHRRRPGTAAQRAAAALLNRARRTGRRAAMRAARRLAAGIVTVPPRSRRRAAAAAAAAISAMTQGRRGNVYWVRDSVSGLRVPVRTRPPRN

In experiment [12] the target is AdV5 pVI (human adenovirus C serotype 5) (UniProt P24937).
For experiment [13], the target named is T4, AdV5 pµ (human adenovirus C serotype 5) (UniProt Q2KS10).
T4 sequence: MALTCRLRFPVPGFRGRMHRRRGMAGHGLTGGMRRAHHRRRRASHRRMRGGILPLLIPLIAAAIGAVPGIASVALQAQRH

For experiment [14], the target named is T5, AdV5 pIIIa (human adenovirus C serotype 5) (UniProt P12537).
T5 sequence: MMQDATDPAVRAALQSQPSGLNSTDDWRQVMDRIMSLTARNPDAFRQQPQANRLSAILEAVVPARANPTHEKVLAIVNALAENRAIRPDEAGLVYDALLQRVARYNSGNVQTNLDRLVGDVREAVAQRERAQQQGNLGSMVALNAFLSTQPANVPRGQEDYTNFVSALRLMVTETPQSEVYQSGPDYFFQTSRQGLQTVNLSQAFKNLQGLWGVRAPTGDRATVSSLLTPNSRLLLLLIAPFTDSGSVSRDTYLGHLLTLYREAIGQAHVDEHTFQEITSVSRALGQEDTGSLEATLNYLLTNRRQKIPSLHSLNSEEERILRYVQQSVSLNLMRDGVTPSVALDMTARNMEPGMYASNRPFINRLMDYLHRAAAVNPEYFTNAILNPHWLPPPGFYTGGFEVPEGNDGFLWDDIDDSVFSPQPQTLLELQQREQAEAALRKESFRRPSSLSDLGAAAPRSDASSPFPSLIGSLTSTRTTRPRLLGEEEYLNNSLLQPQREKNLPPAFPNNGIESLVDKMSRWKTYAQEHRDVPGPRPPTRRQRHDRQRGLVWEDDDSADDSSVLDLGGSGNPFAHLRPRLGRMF

Sequence of Sequencing grade trypsin (P00761 9-231 limits assumed): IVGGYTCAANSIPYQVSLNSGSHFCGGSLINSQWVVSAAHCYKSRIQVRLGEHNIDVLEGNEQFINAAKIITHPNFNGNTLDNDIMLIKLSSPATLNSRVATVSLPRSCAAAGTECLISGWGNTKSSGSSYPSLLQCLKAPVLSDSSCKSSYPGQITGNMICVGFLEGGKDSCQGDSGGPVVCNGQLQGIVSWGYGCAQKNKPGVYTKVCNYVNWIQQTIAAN
Sequence of AdV5 Penton base (human adenovirus C serotype 5) (P12538 whole entry): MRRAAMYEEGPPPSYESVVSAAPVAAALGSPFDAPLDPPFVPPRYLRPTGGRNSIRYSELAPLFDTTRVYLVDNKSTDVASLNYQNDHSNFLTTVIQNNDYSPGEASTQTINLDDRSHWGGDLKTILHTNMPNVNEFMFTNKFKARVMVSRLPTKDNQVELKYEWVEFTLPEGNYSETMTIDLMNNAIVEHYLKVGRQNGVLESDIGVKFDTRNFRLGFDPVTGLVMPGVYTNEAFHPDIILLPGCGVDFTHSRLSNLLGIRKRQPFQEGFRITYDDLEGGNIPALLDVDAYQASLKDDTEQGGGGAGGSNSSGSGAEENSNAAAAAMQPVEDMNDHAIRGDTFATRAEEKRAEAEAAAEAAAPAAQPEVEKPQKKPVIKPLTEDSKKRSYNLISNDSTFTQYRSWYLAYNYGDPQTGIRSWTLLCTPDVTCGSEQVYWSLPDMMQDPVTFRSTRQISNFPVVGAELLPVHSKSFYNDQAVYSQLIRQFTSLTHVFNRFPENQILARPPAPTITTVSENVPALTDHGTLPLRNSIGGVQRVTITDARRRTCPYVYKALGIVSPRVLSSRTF

Asp-N protease (enzyme) came in with a sequence coverage by LC-MS/MS after Asp-N digestion in experiment [1] of 99.2%.

Regarding “Sequencing grade trypsin (from UniProt P00761) (enzyme)”, the Sequence Coverage (%) by LC-MS/MS after trypsin digestion in experiment [2] turned out to be 98.9%; in experiment [3] it was 89.2%; in [4], 84.2%; in experiment [5], 93.8%; in [6], 91.4%; in [7], 94.3%. In addition, the Sequence Coverage (%) by LC-MS/MS after trypsin digestion came to 91.7% in experiment [8]; 55.1% in experiment [9]; 99.3% in experiment [10]; 91.9% in experiment [11]; 98.6% in [12]; 92.5% in [13]. Besides, the Sequence Coverage (%) by LC-MS/MS after trypsin digestion in experiment [14] amounted to 99.1%.
